The values below are quoted from earlier work in paper PMC9414616.

What is called Kd is the concentration at which binding is half-saturated.

For this series, the target named is NTSR2 (UniProt O95665).
Sequence of UniProt O95665 (O95665 whole entry): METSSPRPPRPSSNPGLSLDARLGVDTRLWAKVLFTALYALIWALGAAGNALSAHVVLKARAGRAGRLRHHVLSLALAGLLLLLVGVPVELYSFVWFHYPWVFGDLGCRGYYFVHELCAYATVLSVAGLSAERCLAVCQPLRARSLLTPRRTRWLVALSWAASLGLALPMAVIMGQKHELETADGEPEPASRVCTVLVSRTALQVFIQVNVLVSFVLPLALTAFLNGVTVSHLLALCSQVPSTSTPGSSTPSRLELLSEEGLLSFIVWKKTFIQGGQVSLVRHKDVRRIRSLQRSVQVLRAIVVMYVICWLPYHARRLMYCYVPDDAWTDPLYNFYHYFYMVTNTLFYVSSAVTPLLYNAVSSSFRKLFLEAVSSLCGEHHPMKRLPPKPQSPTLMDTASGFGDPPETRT

For neurotensin (from UniProt P30990), the Kd is 4 nM.
